Test results: CN113484526A (SHANGHAI MABGEN MEDICINE TECH CO LTD, dated 2021)

Experiments:
[1] = target: Human FcRn Protein, His Tag (ACRO Biosystems, Cat.No.FCN-H52W7) (human) (UniProt P55899); test: competition ELISA against Biotin-IgG on FcRn-His, relative to the reference antibody (SEQ ID NO: 180/181)
[2] = target: T1, 人FcRn胞外区-β2M复合物(带His标签的重组蛋白) (human, UniProt P61769 21-119); test: hybridoma screening: binding ELISA, cell binding and cell blocking
T1 construct: also called FcRn抗原; 人FcRn-β2M复合物; not shown: His tag

A 生物学活性(相对参考品) [1] of 0% was found for “不针对FcRn靶点的无关抗体(IgG4亚型，迈晋生物自制) (antibody)” in this work.

B1: hybri11 (antibody, V domains shown)
VH: QVQLQQPGAELVKPGASVKVSCKASGSTFTSYYMHWVKQRPGQGLEWIGRIHPSNSDSNYNQKFKGKATLTVDKSSSTAYMQLSSLTSEDSAVYYCAMKRDGYYEGFPHWGQGTLVTVSA
VL: DIQMTQSPASQSASLGESVTITCLASQTIGTWLAWYQQKPGKSPQLLIYAATSLADGVPSRFSGSRSGTKFSFKISSLQAEDFVSYYCQQLYSTPYTFGGGTKLEIK
notes: Mouse hybridoma antibody; tested as hybridoma supernatant/purified antibody; also called 阳性克隆hybri11
B1: binds [2].
